From doi:10.1101/2024.10.14.618187, “Molecular basis of interchain disulfide-bond formation in BMP-9 and BMP-10” (bioRxiv, 2024)

B1: Pro-(X)-BMP-9 [human] / itself (parent)
chain: KPLQSWGRGSAGGNAHSPLGVPGGGLPEHTFNLKMFLENVKVDFLRSLNLSGVPSQDKTRVEPPQYMIDLYNRYTSDKSTTPASNIVRSFSMEDAISITATEDFPFQKHILLFNISIPRHEQITRAELRLYVSCQNHVDPSHDLKGSVVIYDVLDGTDAWDSATETKTFLVSQDIQDEGWETLEVSSAVKRWVRSDSTKSKNKLEVTVESHRKGCDTLDISVPPGSRNLPFFVVFSNDHSSGTKETRLELREMISHEQESVLKKLSKDGSTEAGESSHEEDTDGHVAAGSTLAIEGRSSGAGSHCQKTSLRVNFEDIGWDSWIIAPKEYEAYECKGGCFFPLADDVTPTKHAIVQTLVHLKFPTKVGKACCVPTKLSPISVLYKDDMGVPTLKYHYEGMSVAECGCR

Variants of: B1
Assay: SDS-PAGE densitometry after IMAC purification
Conditions: with itself

| screen value | Variant |
| --- | --- |
| 1.29 | KPLQSWGRGSAGGNAHSPLGVPGGGLPEHTFNLKMFLENVKVDFLRSLNLSGVPSQDKTRVEPPQYMIDLYNRYTSDKSTTPASNIVRSFSMEDAISITATEDFPFQKHILLFNISIPRHEQITRAELRLYVSCQNHVDPSHDLKGSVVIYDVLDGTDAWDSATETKTFLVSQDIQDEGWETLEVSSAVKRWVRSDSTKSKNKLEVTVESHRKGCDTLDISVPPGSRNLPFFVVFSNDHSSGTKETRLELREMISHEQESVLKKLSKDGSTEAGESSHEEDTDGHVAAGSTLAIEGRSSGAGSHCQKTSLRVNFEDIGWDSWIIAPKEYEAYECKGGCFFPLADDVTPTKHAIVQTLVHLKFPTKVSKACCVPTKLSPISVLYKDDMGVPTLKYHYEGMSVAECGCR [chain 1 G367S] |
| 0.7 | KPLQSWGRGSAGGNAHSPLGVPGGGLPEHTFNLKMFLENVKVDFLRSLNLSGVPSQDKTRVEPPQYMIDLYNRYTSDKSTTPASNIVRSFSMEDAISITATEDFPFQKHILLFNISIPRHEQITRAELRLYVSCQNHVDPSHDLKGSVVIYDVLDGTDAWDSATETKTFLVSQDIQDEGWETLEVSSAVKRWVRSDSTKSKNKLEVTVESHRKGCDTLDISVPPGSRNLPFFVVFSNDHSSGTKETRLELREMISHEQESVLKKLSKDGSTEAGESSHEEDTDGHVAAGSTLAIEGRSSGAGSHCQKTSLRVNFEDIGWDSWIIAPKEYEAYECRGGCFFPLADDVTPTKHAIVQTLVHLKFPTKVGKACCVPTKLSPISVLYKDDMGVPTLKYHYEGMSVAECGCR [chain 1 K335R] |
| 3.24 | KPLQSWGRGSAGGNAHSPLGVPGGGLPEHTFNLKMFLENVKVDFLRSLNLSGVPSQDKTRVEPPQYMIDLYNRYTSDKSTTPASNIVRSFSMEDAISITATEDFPFQKHILLFNISIPRHEQITRAELRLYVSCQNHVDPSHDLKGSVVIYDVLDGTDAWDSATETKTFLVSQDIQDEGWETLEVSSAVKRWVRSDSTKSKNKLEVTVESHRKGCDTLDISVPPGSRNLPFFVVFSNDHSSGTKETRLELREMISHEQESVLKKLSKDGSTEAGESSHEEDTDGHVAAGSTLAIEGRSSGAGSHCQKTSLRVNFEDIGWDSWIIAPKEYEAYECRGGCFFPLADDVTPTKHAIVQTLVHLKFPTKVSKACCVPTKLSPISVLYKDDMGVPTLKYHYEGMSVAECGCR [chain 1 K335R G367S] |
